The chains are these.
B1: Pol III subunit C53 (within purified Pol III) (natural protein, UniProt P25441 1-422, looked up)
chain: MSSNKGNGRLPSLKDSSSNGGGSAKPSLKFKPKAVARKSKEEREAAASKVKLEEESKRGNDKKHFNNKNKRVTGAGGQQRRMAKYLNNTHVISSGPLAAGNFVSEKGDLRRGFIKSEGSGSSLVQKGLETIDNGAESSENEAEDDDNEGVASKSKKKFNMGKEFEARNLIEDEDDGESEKSSDVDMDDEEWRSKRIEQLFPVRPVRVRHEDVETVKREIQEALSEKPTREPTPSVKTEPVGTGLQSYLEERERQVNEKLADLGLEKEFQSVDGKEAAAELELLNADHQHILRKLKKMNNKPERFMVFQLPTRLPAFERPAVKEEKEDMETQASDPSKKKKNIKKKDTKDALSTRELAGKVGSIRVHKSGKLSVKIGNVVMDIGKGAETTFLQDVIALSIADDASSAELLGRVDGKIVVTPQI
notes: RNA polymerase III subunit C53, S. cerevisiae; N-terminal low-complexity region C53-Nt is residues 1-274; Subunit of m2, written alone for the pairs that touch in the structures; source: endogenous, S. cerevisiae strain SC1613, purified as part of Pol III (IgG Sepharose, TEV elution, Mono-Q)

Assay [1] concerns the target RNA polymerase III (Pol III), 17 subunits, isolated from yeast (S. cerevisiae (endogenous in strain SC1613)) (UniProt P04051). As to the kind of experiment: native gel or EMSA; recombinant IN1 mixed with Pol III isolated from yeast, free of nucleic acids; native gel electrophoresis. (In general: A gel shift assay detects complexes by their altered migration in electrophoresis.)

Assay [2] deals with T1, Pol III subunit C160 (within purified Pol III) (S. cerevisiae (endogenous in strain …, UniProt P04051 1-1460)).
T1 construct: RNA polymerase III largest subunit C160, S. cerevisiae; Subunit of m2, written alone for the pairs that touch in the structures; source: endogenous, S. cerevisiae strain SC1613, purified as part of Pol III (IgG Sepharose, TEV elution, Mono-Q)
T1 sequence (looked up): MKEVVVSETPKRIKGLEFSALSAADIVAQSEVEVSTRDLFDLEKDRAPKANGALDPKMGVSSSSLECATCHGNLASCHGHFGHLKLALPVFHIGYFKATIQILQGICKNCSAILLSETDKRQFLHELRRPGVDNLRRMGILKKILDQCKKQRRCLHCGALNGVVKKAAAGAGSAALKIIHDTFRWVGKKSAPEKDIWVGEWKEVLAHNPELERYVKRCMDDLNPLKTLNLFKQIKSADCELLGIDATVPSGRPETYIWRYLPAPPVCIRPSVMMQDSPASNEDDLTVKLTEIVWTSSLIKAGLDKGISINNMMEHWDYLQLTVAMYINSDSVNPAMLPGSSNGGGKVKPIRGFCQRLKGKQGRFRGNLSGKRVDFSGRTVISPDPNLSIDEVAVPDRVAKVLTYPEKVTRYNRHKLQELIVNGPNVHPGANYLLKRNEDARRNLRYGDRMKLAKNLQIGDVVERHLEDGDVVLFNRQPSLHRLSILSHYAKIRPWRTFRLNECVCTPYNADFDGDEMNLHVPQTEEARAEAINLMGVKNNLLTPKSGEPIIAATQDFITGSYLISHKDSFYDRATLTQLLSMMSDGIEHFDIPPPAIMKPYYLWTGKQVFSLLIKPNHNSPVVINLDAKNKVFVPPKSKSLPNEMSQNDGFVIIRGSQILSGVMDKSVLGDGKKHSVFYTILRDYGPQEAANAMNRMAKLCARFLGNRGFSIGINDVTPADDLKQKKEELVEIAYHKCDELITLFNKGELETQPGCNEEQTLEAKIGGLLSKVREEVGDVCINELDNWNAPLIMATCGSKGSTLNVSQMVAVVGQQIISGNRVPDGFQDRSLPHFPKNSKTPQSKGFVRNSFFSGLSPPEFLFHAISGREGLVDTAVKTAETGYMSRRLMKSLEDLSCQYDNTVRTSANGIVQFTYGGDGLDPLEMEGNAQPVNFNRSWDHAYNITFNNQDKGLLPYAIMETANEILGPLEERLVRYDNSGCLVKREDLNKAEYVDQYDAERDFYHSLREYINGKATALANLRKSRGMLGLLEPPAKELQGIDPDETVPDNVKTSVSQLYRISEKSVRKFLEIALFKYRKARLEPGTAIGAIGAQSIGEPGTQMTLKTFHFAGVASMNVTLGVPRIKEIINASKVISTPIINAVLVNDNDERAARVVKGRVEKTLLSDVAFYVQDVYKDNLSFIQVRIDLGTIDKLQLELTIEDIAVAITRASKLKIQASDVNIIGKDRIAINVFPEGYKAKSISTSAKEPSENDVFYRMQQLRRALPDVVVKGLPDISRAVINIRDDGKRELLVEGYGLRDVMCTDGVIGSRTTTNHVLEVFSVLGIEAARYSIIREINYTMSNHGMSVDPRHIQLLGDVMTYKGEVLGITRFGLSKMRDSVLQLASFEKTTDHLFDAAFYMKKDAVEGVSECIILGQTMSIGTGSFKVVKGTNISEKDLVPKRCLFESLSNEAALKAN
The assay can be described thus: cryo-EM structure; Pol III and IN1 both at 0.5 uM in 20 mM HEPES-NaOH pH 7.5, 170 mM NaCl, 2 mM DTT, 30 min at 4 °C; crosslinked with 0.06% glutaraldehyde; no nucleic acids (maps A-C). As to conditions: both partners purified.

Assay [3] deals with T1, Pol III subunit C160 (within purified …). As to the kind of experiment: cryo-EM structure; Pol III-DNA (0.4 uM, mismatched transcription bubble) mixed with 0.6 uM IN1, 30 min at 20 °C in 10 mM Hepes pH 7.5, 150 mM NaCl, 5 mM MgCl2, 5 mM DTT; 8 mM CHAPSO on the grid (map D). As to conditions: both partners purified.
Assay [4] has as its target T2, Pol III subunit C128 (within purified Pol III) (S. cerevisiae (endogenous in strain …, UniProt P22276 1-1149)).
T2 construct: RNA polymerase III second largest subunit C128, S. cerevisiae; Subunit of m2, written alone for the pairs that touch in the structures; source: endogenous, S. cerevisiae strain SC1613, purified as part of Pol III (IgG Sepharose, TEV elution, Mono-Q)
T2 sequence (looked up): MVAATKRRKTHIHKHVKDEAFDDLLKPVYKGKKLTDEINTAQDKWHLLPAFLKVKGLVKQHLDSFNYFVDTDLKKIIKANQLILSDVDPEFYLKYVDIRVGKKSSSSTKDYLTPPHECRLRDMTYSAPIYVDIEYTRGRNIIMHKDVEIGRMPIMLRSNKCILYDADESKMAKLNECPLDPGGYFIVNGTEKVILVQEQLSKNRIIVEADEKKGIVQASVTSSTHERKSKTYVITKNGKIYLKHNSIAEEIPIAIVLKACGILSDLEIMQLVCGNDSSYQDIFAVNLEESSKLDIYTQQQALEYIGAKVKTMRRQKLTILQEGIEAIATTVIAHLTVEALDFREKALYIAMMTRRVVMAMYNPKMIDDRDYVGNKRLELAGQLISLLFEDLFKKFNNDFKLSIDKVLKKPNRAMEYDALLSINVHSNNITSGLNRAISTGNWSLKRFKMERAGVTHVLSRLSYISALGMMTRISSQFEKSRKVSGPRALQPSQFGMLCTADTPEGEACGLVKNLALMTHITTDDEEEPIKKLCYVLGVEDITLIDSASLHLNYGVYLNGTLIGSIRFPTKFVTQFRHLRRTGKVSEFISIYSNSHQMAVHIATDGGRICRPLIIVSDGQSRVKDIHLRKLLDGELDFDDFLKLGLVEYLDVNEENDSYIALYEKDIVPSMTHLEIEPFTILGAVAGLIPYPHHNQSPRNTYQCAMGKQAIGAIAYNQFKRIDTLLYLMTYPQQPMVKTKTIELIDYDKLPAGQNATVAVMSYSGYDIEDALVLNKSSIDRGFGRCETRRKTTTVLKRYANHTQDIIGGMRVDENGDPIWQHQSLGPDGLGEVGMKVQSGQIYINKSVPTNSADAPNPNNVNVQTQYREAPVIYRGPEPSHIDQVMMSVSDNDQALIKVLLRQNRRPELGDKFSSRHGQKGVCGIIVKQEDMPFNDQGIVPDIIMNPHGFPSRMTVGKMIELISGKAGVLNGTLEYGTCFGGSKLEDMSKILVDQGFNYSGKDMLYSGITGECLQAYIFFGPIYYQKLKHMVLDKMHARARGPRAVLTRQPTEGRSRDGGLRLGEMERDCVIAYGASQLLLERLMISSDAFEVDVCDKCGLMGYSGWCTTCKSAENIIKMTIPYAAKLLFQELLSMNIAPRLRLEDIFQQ
The assay can be described thus: cryo-EM structure; Pol III and IN1 both at 0.5 uM in 20 mM HEPES-NaOH pH 7.5, 170 mM NaCl, 2 mM DTT, 30 min at 4 °C; crosslinked with 0.06% glutaraldehyde; no nucleic acids (maps A-C). The conditions noted are these: both partners purified.

Assay [5] concerns the target B1. The description is as above. As to conditions: both partners purified.
Assay [6] deals with T3, Pol III subunit C37 (within purified Pol III) (S. cerevisiae (endogenous in strain …, UniProt P36121 1-282)).
T3 construct: RNA polymerase III subunit C37, S. cerevisiae; Subunit of m2, written alone for the pairs that touch in the structures; source: endogenous, S. cerevisiae strain SC1613, purified as part of Pol III (IgG Sepharose, TEV elution, Mono-Q)
T3 sequence (looked up): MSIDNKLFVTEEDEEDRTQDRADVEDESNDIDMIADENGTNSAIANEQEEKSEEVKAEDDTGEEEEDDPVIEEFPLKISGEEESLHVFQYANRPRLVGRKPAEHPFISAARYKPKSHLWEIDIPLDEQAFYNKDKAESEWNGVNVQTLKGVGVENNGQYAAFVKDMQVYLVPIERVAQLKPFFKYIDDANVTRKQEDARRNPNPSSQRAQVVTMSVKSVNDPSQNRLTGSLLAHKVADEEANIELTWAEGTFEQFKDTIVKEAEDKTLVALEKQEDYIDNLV
The description is as above. As to conditions: both partners purified.

With “Ty1 integrase (IN1), recombinant (from UniProt Q12414 583-1217) (enzyme)”, the stoichiometry N in assay [1] was found to be 1.

With B1, the binding result in assay [2] was “binds”.

B2: Pol III subunit C11 (within purified Pol III) (natural protein, UniProt Q04307 1-110, looked up)
chain: MLSFCPSCNNMLLITSGDSGVYTLACRSCPYEFPIEGIEIYDRKKLPRKEVDDVLGGGWDNVDQTKTQCPNYDTCGGESAYFFQLQIRSADEPMTTFYKCVNCGHRWKEN
notes: RNA polymerase III subunit C11, S. cerevisiae; two Zn-ribbons (residues 1-36 and 64-110) joined by a linker (37-63); Subunit of m2, written alone for the pairs that touch in the structures; source: endogenous, S. cerevisiae strain SC1613, purified as part of Pol III (IgG Sepharose, TEV elution, Mono-Q)
Regarding B2, the binding result in assay [3], in assay [4], in assay [5] and in assay [6] was “binds” throughout.

One may read the stoichiometry N as the number of molecules, sites or subunits per partner or assembly.

The values are drawn from article PMC10050235, “Structural basis of Ty1 integrase tethering to RNA polymerase III for targeted retrotransposon integration” (Nature Communications, 2023).
